This passage reports Caffeine response (normalized ratio to vector control), KCl response (normalized ratio to vector control) and Releasable Ca^2+ level from SR (normalized ratio to vector control) results from patent publication US20240402190A1.

The assay deals with SERCA1a, mouse (endogenous, mouse myotubes) (mouse) (UniProt Q8R429). As to the kind of experiment: cell-based or functional assay.
Sequence of UniProt Q8R429 (Q8R429 whole entry): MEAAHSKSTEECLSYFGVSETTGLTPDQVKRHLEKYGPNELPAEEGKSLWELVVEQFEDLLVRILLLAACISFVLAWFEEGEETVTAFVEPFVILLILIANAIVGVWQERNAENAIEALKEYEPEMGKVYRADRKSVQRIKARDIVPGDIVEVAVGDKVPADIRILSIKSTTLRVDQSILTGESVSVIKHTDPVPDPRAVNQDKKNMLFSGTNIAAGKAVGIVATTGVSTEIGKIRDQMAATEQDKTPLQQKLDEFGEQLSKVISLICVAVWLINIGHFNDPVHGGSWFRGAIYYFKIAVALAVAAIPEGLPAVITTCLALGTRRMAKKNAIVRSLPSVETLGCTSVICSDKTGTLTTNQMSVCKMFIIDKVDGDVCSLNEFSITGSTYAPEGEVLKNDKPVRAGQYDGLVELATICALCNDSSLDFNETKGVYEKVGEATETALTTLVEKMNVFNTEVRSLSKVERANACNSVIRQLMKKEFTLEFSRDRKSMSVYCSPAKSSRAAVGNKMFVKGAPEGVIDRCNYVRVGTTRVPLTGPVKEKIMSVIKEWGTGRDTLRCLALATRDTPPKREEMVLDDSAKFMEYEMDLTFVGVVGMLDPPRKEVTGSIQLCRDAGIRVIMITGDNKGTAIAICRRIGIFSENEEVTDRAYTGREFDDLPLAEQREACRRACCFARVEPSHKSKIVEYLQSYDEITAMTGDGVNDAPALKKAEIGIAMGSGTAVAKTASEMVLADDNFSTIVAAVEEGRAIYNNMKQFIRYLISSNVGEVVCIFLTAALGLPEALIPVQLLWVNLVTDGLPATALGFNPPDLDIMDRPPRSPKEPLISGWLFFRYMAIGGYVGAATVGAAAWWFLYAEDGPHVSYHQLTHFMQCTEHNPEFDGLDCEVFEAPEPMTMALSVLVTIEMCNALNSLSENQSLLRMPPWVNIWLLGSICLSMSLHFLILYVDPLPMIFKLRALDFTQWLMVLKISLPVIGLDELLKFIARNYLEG

“NHL-Del (TRIM32 lacking the NHL repeat) expressed in mouse myotubes (from UniProt Q13049 1-357)”: the Caffeine response (normalized ratio to vector control) was 0.97, the KCl response (normalized ratio to vector control) is 0.94 and the Releasable Ca^2+ level from SR (normalized ratio to vector control) is 0.99.

In the case of “wild-type TRIM32 expressed in mouse myotubes (from UniProt Q13049 1-653)”, the Caffeine response (normalized ratio to vector control) was 1.22, the KCl response (normalized ratio to vector control) was 1.27 and the Releasable Ca^2+ level from SR (normalized ratio to vector control) was 1.48.
